Data: the nanobody polyreactivity screen of Harvey et al. (2022)

Assay: yeast display, Sf9 membrane polyspecificity reagent, FACS + sequencing; frameworks hold sequencing errors
How it was run: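 Sorting gates, low and high (top ~1%), were placed on anti-HA fluorescence to track expression and on streptavidin fluorescence to track reagent binding. A clone's polyreactivity label is taken from the gate it came out of. The reagent was 10% biotinylated, detergent-solubilized Sf9 membrane, applied for 1 hour at 4 °C to galactose-induced yeast display cells.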

Row | Sequence | polyreactivity (PSR sort gate)
1 | QVQLVESGGGLVQAGGSLRLSCAASGSIFWVYAMGWYRQAPGKERELVAVIDWSGDSTYYADSVKGRFTISRDNAKNTVYLQMNSLKPEDTAVYYCSAEVYVDYTGYSYFDYPYDYWGQGTQVTVSS | low polyreactivity
2 | QVQLVESGGGLVQAGGSLRLSCAASGSIFWVYVLGWYRQAPGKERELVAAITNGGSTDYADSVKGRFTISRDNAKNTVYLQMNSLKPEDTAVYYCAKRSTIWGRILITYDYWGQGTQVTVSS | low polyreactivity
3 | QVQLVESGGGLVQAGGSLRLSCAASGSIFWYNAMGWYRQAPGKERELVAAIRWRGGSTYYADSVKGRFTISRDNAKNTVYLQMNSLKPEDTAVYDCAAQVYVSQLYTSYYYWGQGTQVTVSS | high polyreactivity
4 | QVQLVESGGGLVQAGGSLRLSCAASGSIFWYNTMGWYRQAPGKERELVAAISSSGGTTYYADSVKGRFTISRDNAKNTVYLQMNSLKPEDTAVYYCAATVGDAYYEYDYWGQGTQVTVSS | low polyreactivity
5 | QVQLVESGGGLVQAGGSLRLSCAASGSIFWYNTMGWYRQAPGKERELVASISWDGGTYYADSVKGRFTISRDNAKNTVYLQMNSLKPEDTAVYYCNVAWYWGYDYWGQGTQVTVSS | low polyreactivity
6 | QVQLVESGGGLVQAGGSLRLSCAASGSIFWYYAMGWSRQAPGKERELVASISSSGGSTYYADSVKGRFTISRDNAKNTVYLQMNSLKPEDTAVYYCAVRSPYRLSRWRVGYWGQGTQVTVSS | high polyreactivity
7 | QVQLVESGGGLVQAGGSLRLSCAASGSIFWYYAMGWYRQAPGKERELDASITRGGSTKYADSVKGRFTISLDNAKNPVYLQMNSLKPEDTAVYYCATTYRLYRVNYDYYWGQGTQVSVSS | high polyreactivity
8 | QVQLVESGGGLVQAGGSLRLSCAASGSIFYANAMGWYRQAPGKERELVAAISRSGGRTYYADSVKGRFTISRDNSKNTVYLQMNSLKPEDTAVYYCAADTGRYRDSNYWGQGTQVTVSS | high polyreactivity
9 | QVQLVESGGGLVQAGGSLRLSCAASGSIFYDKDSGWYRQAPGKERELFAAITSTGGSTYYADSVKGRFTISRDHAKNTVYLQMNSLKPEDTAVYDCNTPTYLYWGFNTYDYWGQGTQFTVSS | low polyreactivity
10 | QVQLVESGGGLVQAGGSLRLSCAASGSIFYDNAMGWYRQAPGKERELVAAITIDGSTYADSVKGRFTISRDNAKYTVYLQMNSLKPEDTAVYYCAAEWDTNFWYDYWGQGTQVTVSS | low polyreactivity
11 | QVQLVESGGGLVQAGGSLRLSCAASGSIFYDNDMGWYRQAPGNERELVAAISWSASDTYYADSVKGRFTISRDNAKNTVYLQMNSLKPDDTAVYYCNAEVYEWYVVYSALDYWGQGTQVTVSS | low polyreactivity
12 | QVQLVESGGGLVQAGGSLRLSCAASGSIFYENDMGWYRQAPGKERELVAAISSGGTTNYADSVKGRFTISRDNAKNTVYLQMNSLKPEDTAVYYCAAEYPSVYYERFDYWGQGTQVTVSS | low polyreactivity
13 | QVQLVESGGGLVQAGGSLRLSCAASGSIFYFHALGWYRQAPGKERELVAAITRRGGSTRYADSVKGRFTISRDNAKNTVYLQMNSLKPEDTAVYYCAAVKEYSYSYKSYDVYYWGQGTQVTVSS | high polyreactivity
14 | QVQLVESGGGLVQAGGSLRLSCAASGSIFYFNAMGWYRQAPGKERELVAAITYSGGSTYYADSVKGRFTISRDNAKNTVYLQMNSLKPEDTAVYYCAAERRTFPLRNFDYWGQGTQVTVLS | low polyreactivity
15 | QVQLVESGGGLVQAGGSLRLSCAASGSIFYFNAMGWYRQAPGKERELVAAITYSGGSTYYADSVKGRFTISRDNAKNTVYLQMNSLKPEDTAVYYCNAQVYYSVRGYPYGYYRNDYWGQGTQVTVSS | low polyreactivity
16 | QVQLVESGGGLVQAGGSLRLSCAASGSIFYFYTMGWYRQAPGKEREFVAAINGIGGSTYYADSVKGRFTISRDNAKNTVYLQMNSLKPEDTAVYYCAADAPWFKRNARKYNYWGQGTQVTVSS | low polyreactivity
17 | QVQLVESGGGLVQAGGSLRLSCAASGSIFYGNTMGWYRQAPGKERELVAAIDYRGDSTYYADSVKGRFTISRDNAKNTVYLQMNSLKPVDTAVYYCAADQTPVGQVYYGTLSIRDYWGQGTQVSVSS | low polyreactivity
18 | QVQLVESGGGLVQAGGSLRLSCAASGSIFYGNTMGWYRQAPGKERELVAAISSGGSTKYADSVKGRFTISRDNAKNTVYLQMNSLKPEDTAVFYCAADLPRYWVTWMDYWGQGTQVTVSS | low polyreactivity
19 | QVQLVESGGGLVQAGGSLRLSCAASGSIFYGNVMGWYRQAPGKERELVAAISWRGGSTYYADSVKGRFTMSRDNAKNTVYLPMNSLKPEDTAVYYCNAERYYYATYGYPIDYWGQGTQVTVSS | low polyreactivity
20 | QVQLVESGGGLVQAGGSLRLSCAASGSIFYGYAMGWYRPAPGKERELVAAITSGGRTYYADSVKGRFTISRDNAKNTVYLQMNSLKPEDTAVYYCNKLNYWSVRYEYWGQGTQVTVSS | high polyreactivity
21 | QVQLVESGGGLVQAGGSLRLSCAASGSIFYGYAMGWYRQAAGNERELVAAITTGGSTYCADSVKGRFTISRDNAKNTVYLQMNSLKPEDTAVYYCAAKYYTGGSFEMYYWGQGNQVTVSS | high polyreactivity
22 | QVQLVESGGGLVQAGGSLRLSCAASGSIFYGYAMGWYRQAPGKEREFVASINSGVGSTYYADSVKGRFTISRDNAKNTVYLLMNSLKPEDTAVYYCNKVHRSFTYNDGQTPAYDYWGQRTQVTVSS | low polyreactivity

Row | Sequence | polyreactivity (PSR sort gate)
23 | QVQLVESGGGLVQAGGSLRLSCAASGSIFYGYAMGWYRQAPGKERELVAAISWTGGRTYYADSVKGRFTISRDNAKNTVYLQMNSLKPEDTAVYYCNVRRYSVVSGGYWGQGTQVTVSS | high polyreactivity
24 | QVQLVESGGGLVQAGGSLRLSCAASGSIFYGYAMGWYRQAPGKERELVAAISYSGDRTYYADSVKGRFTISRDNAKNTVYLQMNSLKPEDTAVYYCAARKHGGTVRGRRDYWGQGTQVTVSS | high polyreactivity
25 | QVQLVESGGGLVQAGGSLRLSCAASGSIFYGYAMGWYRQAPGKERELVAAITDVGSTNYADSVKGRFTISRDNAKNTVYLQMNSLKPEDTAVYYCAADNYRRSSVDPFTDTMGYWGQGTQVTVSS | low polyreactivity
26 | QVQLVESGGGLVQAGGSLRLSCAASGSIFYGYAMGWYRQAPGKERELVAVISRRGDSTYYADSVKGRFTISRDNAKNSVYLQMNSLKPEDTAVYYCASYGSLSKGFGYWGQGTQVTVSS | low polyreactivity
27 | QVQLVESGGGLVQAGGSLRLSCAASGSIFYGYTMGWYRQAPGKERELVAAITYRGGRTYYADSVKGRFTISRDNAKNTDYLQMNSLKPEDTAVYYCAARYDYFSSKYGYWGQGTQVTVSS | high polyreactivity
28 | QVQLVESGGGLVQAGGSLRLSCAASGSIFYHYAMGWYRQAPGKERELVAAISRSGGRTYYADSVKGRFTISRDNAKNTVYLQMNSLKPEDTAVYYCNKDYYYPNSWPKYDYWGQGTQVTVSS | low polyreactivity
29 | QVQLVESGGGLVQAGGSLRLSCAASGSIFYHYAMGWYRQAPGKERELVATINWSGGSTYYADSVKGRFTISRDNAKNTVYLQMNSLKPEDTAVYYCYSDSAIGLYVSSTPYGYDYWGQGTQVTVSS | low polyreactivity
30 | QVQLVESGGGLVQAGGSLRLSCAASGSIFYINAMVWYRPAPGTERELLAAITSGGTYYADSVKGRFTISRDNAKNTVYLQMNSLKPEDTAVDYCAADREGTPLFDYWGQGTQVTVSS | low polyreactivity
31 | QVQLVESGGGLVQAGGSLRLSCAASGSIFYKNAMGWYRQAPGKERELVAVISTSGSTYYADSVKGRFTISRDNAKNTVYLQMKSLKPEDTAVYYCATKVRRWYSARSPNVRFDYWGQGTQVTVSS | high polyreactivity
32 | QVQLVESGGGLVQAGGSLRLSCAASGSIFYKYAMGWYRQAPGKEREFVAAITGSGVRTYYADSVKGRFTISRDNAKNTVYLQMNRLKPDDTAVYYCAASSYGYDYWGQGTQVTVSS | high polyreactivity
33 | QVQLVESGGGLVQAGGSLRLSCAASGSIFYKYAMGWYRQAPGKERELVASITSGGITNYADSVKGRFTISRDNAKNTVFLQMNSLKPEDTAVYYCNAANPYRRVGSFTYKYDYWGQGTQVTVSS | low polyreactivity
34 | QVQLVESGGGLVQAGGSLRLSCAASGSIFYKYAMGWYRQARGKERELVAAINRGVSTYYADSVKGRFTISRDNAKNTVYLQLTSLKPEDTAVYYCNADSTELRGYYYWGLGTQVTVSS | low polyreactivity
35 | QVQLVESGGGLVQAGGSLRLSCAASGSIFYKYVMGWYRQAPGKERELVAAISRGGGSTYYADSVKGRFTISRDNAKNSVYLQMNSLKPEDTAVYYCNAVGRPRYGHGFDHWGQGTQETVSS | high polyreactivity
36 | QVQLVESGGGLVQAGGSLRLSCAASGSIFYLNAMGWYRQAPGKERELVATISNGGSTNYADSVKGRFTISRDNAKNTVYLQMNSLKPEDTAVYYCAAASGGTVVGEGDYWGQGTQVTVSS | low polyreactivity
37 | QVQLVESGGGLVQAGGSLRLSCAASGSIFYLNAMGWYRQAPGQERELVASISNGGSTNYADSVKGRFTISRDNAKHTVYLQMNSLKPEVTAVYYCAADYVVSAFDYWGQGTQLTVSS | low polyreactivity
38 | QVQLVESGGGLVQAGGSLRLSCAASGSIFYLYALGWYRQAPGKERELVAAISSSGGRTYYADSVKGRFTISRDNAKNTVYLQMNSLKPEDTAVYYCAARYWAKYSYGYWGQGTQVTVSS | high polyreactivity
39 | QVQLVESGGGLVQAGGSLRLSCAASGSIFYLYAMGWYRQAPGKERELVADITITGGSTYYADSVKGRFTISRDNAKNTVYLQMNSLKPEDTAVYYCAADEFWFTYRYDYWGQGTQVTVSS | high polyreactivity
40 | QVQLVESGGGLVQAGGSLRLSCAASGSIFYLYAMGWYRQAPGKERELVATISLSSGSTYADSVKGRFTISRDNAKNTVYLQMNSLKPDDTAVYYCAKDLSRWGYNEYDYWGQGTQVTLSS | low polyreactivity
41 | QVQLVESGGGLVQAGGSLRLSCAASGSIFYLYTMGWYRQAPGKERELVAAITSGGSTNYADSVKGRFTISRDNAKNTVYLQMNSLKPEDTAVYYCAAEYFDWWVTYDYWGQGTQVTVSS | high polyreactivity
42 | QVQLVESGGGLVQAGGSLRLSCAASGSIFYNNAMGWYRQAPGKERELVAAITIGGSTNYADSVKGRFTISRDNAKNTVYLQMNSLKPEDTAVYYCAAGKPGAYRYGSIVRFDHWGQGTQVTVSS | low polyreactivity
43 | QVQLVESGGGLVQAGGSLRLSCAASGSIFYNNVMGWYRQAPGKERELVAVISGGGSTNYADSVKGRFTISRDNAKNTDYLQMNSLKPEDTAVYYCAARGRYSYGDRYEYWGQGTQVTVSS | low polyreactivity
